Test results published in patent US20250011363A1, “OPTIMIZED SHORTENED PEPTIDE THAT BINDS TO ACETYLCHOLINE RECEPTOR, AND USE THEREOF” (SKINMED CO., LTD., priority 2021, published 2025).

B1: 6mer-1-122 (peptide)
peptide: KKLIRK
B2: 6mer-1-123 (peptide)
peptide: RRGVQK
B3: 6mer-1-124 (peptide)
peptide: KRVQQK
B4: 6mer-1-125 (peptide)
peptide: KRRLCR
B5: 6mer-1-126 (peptide)
peptide: KKWIQR
B6: 6mer-1-127 (peptide)
peptide: KRVIYR
B7: 6mer-1-128 (peptide)
peptide: RKQFYR
B8: 6mer-1-129 (peptide)
peptide: RRRQSK
B9: 6mer-1-130 (peptide)
peptide: RKQVLR
B10: 6mer-1-131 (peptide)
peptide: KRGIQR
B11: 6mer-1-132 (peptide)
peptide: RRQVYR
B12: 6mer-1-133 (peptide)
peptide: RKRFLR
B13: 6mer-1-134 (peptide)
peptide: KKSIYR
B14: 6mer-1-135 (peptide)
peptide: KRQVSR
B15: 6mer-1-468 (peptide)
peptide: RRLYRR
B16: 6mer-1-469 (peptide)
peptide: KKLIYR
B17: 6mer-1-470 (peptide)
peptide: KKWVYR
B18: 6mer-1-471 (peptide)
peptide: KKWRCK
B19: 6mer-1-472 (peptide)
peptide: KRQRCK
B20: 6mer-1-473 (peptide)
peptide: KKVLSK
B21: 6mer-1-474 (peptide)
peptide: KRLFSK
B22: 6mer-1-475 (peptide)
peptide: RKLQTK
B23: 6mer-1-476 (peptide)
peptide: KRRRQK
B24: 6mer-1-477 (peptide)
peptide: KRQQTK
B25: 6mer-1-478 (peptide)
peptide: RKVRYK
B26: 6mer-1-479 (peptide)
peptide: RRSLTR
B27: 6mer-1-480 (peptide)
peptide: KKQFYK
B28: 6mer-1-481 (peptide)
peptide: KRWRCK
B29: 6mer-1-482 (peptide)
peptide: RKQVRK
B30: 6mer-1-483 (peptide)
peptide: KRQVTK
B31: 6mer-1-484 (peptide)
peptide: KKLYLR
B32: 6mer-1-485 (peptide)
peptide: RRWYRR
B33: 6mer-1-486 (peptide)
peptide: KRQVRK
B34: 6mer-1-487 (peptide)
peptide: RKGRRK
B35: 6mer-1-488 (peptide)
peptide: KKWYSK
B36: 6mer-1-489 (peptide)
peptide: KKVITK
B37: 6mer-1-490 (peptide)
peptide: KKLFRR
B38: 6mer-1-491 (peptide)
peptide: RKLRLR
B39: 6mer-1-492 (peptide)
peptide: RRWRQK
B40: 6mer-1-493 (peptide)
peptide: KRGYLR
B41: 6mer-1-494 (peptide)
peptide: KKLFSR
B42: 6mer-1-495 (peptide)
peptide: RKGFQR
B43: 6mer-1-496 (peptide)
peptide: RRVYQR
B44: 6mer-1-497 (peptide)
peptide: KRRQLR
B45: 6mer-1-498 (peptide)
peptide: RKRQQK
B46: 6mer-1-499 (peptide)
peptide: RKLFYR
B47: 6mer-1-500 (peptide)
peptide: RKLQSK
B48: 6mer-1-501 (peptide)
peptide: KRVLYK
B49: 6mer-1-502 (peptide)
peptide: RKLFSR
B50: 6mer-1-503 (peptide)
peptide: KRRLCK
B51: 6mer-1-504 (peptide)
peptide: RRSITR
B52: 6mer-1-505 (peptide)
peptide: RRRFTR
B53: 6mer-1-506 (peptide)
peptide: RRRLSK
B54: 6mer-1-507 (peptide)
peptide: RRSQSK
B55: 6mer-1-508 (peptide)
peptide: RRQFSK
B56: 6mer-1-509 (peptide)
peptide: RKWLRK
B57: 6mer-1-510 (peptide)
peptide: KRRQSR
B58: 6mer-1-511 (peptide)
peptide: RKVYRR
B59: 6mer-1-512 (peptide)
peptide: RKWICK
B60: 6mer-1-513 (peptide)
peptide: RKQIRR
B61: 6mer-1-514 (peptide)
peptide: KKGRSK
B62: 6mer-1-515 (peptide)
peptide: RRGLSR
B63: 6mer-1-516 (peptide)
peptide: KKRFSR
B64: 6mer-1-517 (peptide)
peptide: KKGLCK
B65: 6mer-1-518 (peptide)
peptide: KRWVLK
B66: 6mer-1-519 (peptide)
peptide: KRRQCK
B67: 6mer-1-520 (peptide)
peptide: KRQIYK
B68: 6mer-1-521 (peptide)
peptide: RKVISR
B69: 6mer-1-522 (peptide)
peptide: RKRRLR
B70: 6mer-1-523 (peptide)
peptide: KRRRSK
B71: 6mer-1-524 (peptide)
peptide: KKGRQK
B72: 6mer-1-525 (peptide)
peptide: RRQLRR
B73: 6mer-1-526 (peptide)
peptide: KRGYTR
B74: 6mer-1-527 (peptide)
peptide: KKGIYR
B75: 6mer-1-528 (peptide)
peptide: KRSYTR
B76: 6mer-1-529 (peptide)
peptide: RRSLCK
B77: 6mer-1-530 (peptide)
peptide: KRLVSK
B78: 6mer-1-531 (peptide)
peptide: RKGQTK
B79: 6mer-1-532 (peptide)
peptide: KKSQLR

The binders below were run against acetylcholine receptor (assay: SPR, receptor on CM5 chip, peptide 10 µM).

First: B1
Second: B2
The Binding affinity (RU) of the first is lower: 139 RU for the first, 148 RU for the second.

Compared with B3, B4 is lower in Binding affinity (RU): 137 RU for the first, 135 RU for the second.

First: B5
Second: B6
The Binding affinity (RU) of the first is higher: 148 RU for the first, 147 RU for the second.

First: B7
Second: B8
The Binding affinity (RU) of the first is higher: 126 RU for the first, 121 RU for the second.

B9 and B10 are the same in Binding affinity (RU): 142 RU for the first, 142 RU for the second.

Going from B11 to B12, the Binding affinity (RU) rises from 153 RU to 154 RU.

First: B13
Second: B14
The Binding affinity (RU) of the first is higher: 128 RU for the first, 123 RU for the second.

Going from B15 to B16, the Binding affinity (RU) falls from 153 RU to 139 RU.

Going from B17 to B18, the Binding affinity (RU) falls from 148 RU to 123 RU.

First: B19
Second: B20
The Binding affinity (RU) of the first is lower: 142 RU for the first, 154 RU for the second.

First: B21
Second: B22
The Binding affinity (RU) of the first is lower: 121 RU for the first, 148 RU for the second.

First: B23
Second: B24
The Binding affinity (RU) of the first is higher: 154 RU for the first, 145 RU for the second.

Compared with B25, B26 is lower in Binding affinity (RU): 139 RU for the first, 135 RU for the second.

Going from B27 to B28, the Binding affinity (RU) rises from 121 RU to 133 RU.

Compared with B29, B30 is higher in Binding affinity (RU): 133 RU for the first, 151 RU for the second.

First: B31
Second: B32
The Binding affinity (RU) of the first is higher: 154 RU for the first, 126 RU for the second.

First: B33
Second: B34
The Binding affinity (RU) of the first is higher: 151 RU for the first, 121 RU for the second.

First: B35
Second: B36
The Binding affinity (RU) of the first is lower: 135 RU for the first, 148 RU for the second.

Compared with B37, B38 is higher in Binding affinity (RU): 133 RU for the first, 137 RU for the second.

Compared with B39, B40 is lower in Binding affinity (RU): 139 RU for the first, 131 RU for the second.

Compared with B41, B42 is lower in Binding affinity (RU): 128 RU for the first, 126 RU for the second.

First: B43
Second: B44
The Binding affinity (RU) of the first is higher: 148 RU for the first, 133 RU for the second.

First: B45
Second: B46
The Binding affinity (RU) of the first is lower: 139 RU for the first, 149 RU for the second.

Compared with B47, B48 is higher in Binding affinity (RU): 151 RU for the first, 154 RU for the second.

Compared with B49, B50 is higher in Binding affinity (RU): 146 RU for the first, 151 RU for the second.

Compared with B51, B52 is higher in Binding affinity (RU): 122 RU for the first, 148 RU for the second.

Compared with B53, B54 is lower in Binding affinity (RU): 151 RU for the first, 139 RU for the second.

Compared with B55, B56 is lower in Binding affinity (RU): 135 RU for the first, 128 RU for the second.

Going from B57 to B58, the Binding affinity (RU) rises from 122 RU to 136 RU.

B59 and B60 are the same in Binding affinity (RU): 154 RU for the first, 154 RU for the second.

First: B61
Second: B62
The Binding affinity (RU) of the first is lower: 128 RU for the first, 139 RU for the second.

B63 and B64 are the same in Binding affinity (RU): 139 RU for the first, 139 RU for the second.

Compared with B65, B66 is lower in Binding affinity (RU): 153 RU for the first, 147 RU for the second.

Going from B67 to B68, the Binding affinity (RU) rises from 127 RU to 128 RU.

Going from B69 to B70, the Binding affinity (RU) rises from 126 RU to 139 RU.

First: B71
Second: B72
The Binding affinity (RU) of the first is higher: 148 RU for the first, 139 RU for the second.

First: B73
Second: B74
The Binding affinity (RU) of the first is higher: 148 RU for the first, 142 RU for the second.

B75 and B76 are the same in Binding affinity (RU): 139 RU for the first, 139 RU for the second.

First: B77
Second: B78
The Binding affinity (RU) of the first is higher: 137 RU for the first, 135 RU for the second.

With B79 the Binding affinity (RU) was 121 RU.
